Data reported in the supplement of paper PMC7877785.
± gives the uncertainty stated by the source.

Experiment: self-splicing fitness, log relative to wild type (ln ratio); higher = more splicing; Tetrahymena group I intron in knt gene, E. coli kanamycin selection, DiMSum; sequences stand for … in CUCUCU…GGAGGGAAAAGUUAUCAGGCAUGCACCUGGUAGCUAGUCUUUAAACCAAUAGAUUGCAUCGGUUUAAAAGGCAAGACCGUCAAAUUGCGGGAAAGGGGUCAACAGCCGUUCAGUACCAAGUCUCAGGGGAAACUUUGAGAUGGCCUUGCAAAGGGUAUGGUAAUAAGCUGACGGACAUGGUCCUAACCACGCAGCCAAGUCCUAAGUCAACAGAUCUUCUGUUGAUAUGGAUGCAGUUCACAGACUAAAUGUCGGUCGGGGAAGAUGUAUUCUUCUCAUAAGAUAUAGUCGGACCUCUCCUUAAUGGGAGCUAGCGGAUGAAGUGAUGCAACACUGGAGCCGCUGGGAACUAAUUUGUAUGCGAAAGUAUAUUGAUUAGUUUUGGAGUACUCGUGGUCG
In short: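 Six replicate transformations of E. coli BL21(DE3) with a pET-22b(+) library were grown overnight at 37°C or 30°C. The library randomised all eight P1ex-region intron nucleotides, the intron lying in the knt kanamycin-resistance gene, and plates were LB agar with or without 25 μg/mL kanamycin plus 100 μg/mL carbenicillin, 50 μM IPTG and 0.2% rhamnose. Pooled colonies were amplicon-sequenced on an Illumina HiSeq 2500, and fitness is the DiMSum error-weighted combination of wild-type-normalised replicate fold changes, kanamycin versus none.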

| Sequence | self-splicing fitness (ln) (30 °C) | self-splicing fitness (ln) (37 °C) |
| --- | --- | --- |
| ACAAAGCAAUAUUACGGACG | -0.851 ± 0.045 | -0.124 ± 0.065 |
| GCUGAGCAAUAUUACGACAA | -3.36 ± 0.45 | -1.07 ± 0.39 |
| UCAAAGCAAUAUUACGACUU | -4 ± 0.23 | -2.36 ± 0.17 |
| CCUUAGCAAUAUUACGCGGA | -2.93 ± 0.19 | -2.55 ± 0.21 |
| AUGAAGCAAUAUUACGCUAC | -2.06 ± 0.094 | -1.86 ± 0.15 |
| CAAAAGCAAUAUUACGGGAA | -2.69 ± 0.23 | -1.13 ± 0.2 |
| GUCUAGCAAUAUUACGAUGA | -1.21 ± 0.28 | -0.329 ± 0.13 |
| GCACAGCAAUAUUACGAAAA | -1.7 ± 0.1 | -1.09 ± 0.12 |
| UCAAAGCAAUAUUACGCGUA | -0.554 ± 0.1 | -0.355 ± 0.099 |
| CAAGAGCAAUAUUACGGUAG | -1.18 ± 0.076 | -1.01 ± 0.12 |
| GCCGAGCAAUAUUACGUGCC | -3.35 ± 0.15 | -2.52 ± 0.2 |
| GAGUAGCAAUAUUACGUCUA | -0.203 ± 0.099 | -0.00603 ± 0.14 |
| CCUGAGCAAUAUUACGUUCU | -3.63 ± 0.25 | -2.43 ± 0.25 |
| AACUAGCAAUAUUACGUGCU | -2.24 ± 0.083 | -1.97 ± 0.12 |
| UUGCAGCAAUAUUACGACGA | 0.0944 ± 0.089 | 0.407 ± 0.12 |
| CAAUAGCAAUAUUACGAGGG | -3.54 ± 0.16 | -0.649 ± 0.13 |
| AGGUAGCAAUAUUACGUUUA | -2.151 ± 0.019 | -1.33 ± 0.034 |
| CGGUAGCAAUAUUACGACCU | 0.308 ± 0.21 | -0.233 ± 0.19 |
| UCUCAGCAAUAUUACGUUUG | -4.44 ± 0.19 | -3.1 ± 0.15 |
| CUCGAGCAAUAUUACGGAAU | -3.24 ± 0.2 | -3.23 ± 0.38 |
| UGCAAGCAAUAUUACGAGUU | -1.88 ± 0.084 | -0.67 ± 0.098 |
| UCUUAGCAAUAUUACGUGUU | -2.67 ± 0.15 | -2.3 ± 0.25 |
| AACAAGCAAUAUUACGCCGG | -0.692 ± 0.075 | -0.963 ± 0.12 |
| CUGCAGCAAUAUUACGUUAU | -3.94 ± 0.17 | -3.07 ± 0.3 |

| Sequence | self-splicing fitness (ln) (30 °C) | self-splicing fitness (ln) (37 °C) |
| --- | --- | --- |
| AGGUAGCAAUAUUACGUAAA | -2.285 ± 0.018 | -1.39 ± 0.034 |
| GGGGAGCAAUAUUACGUUAC | -3.54 ± 0.38 | -1.07 ± 0.26 |
| GAAGAGCAAUAUUACGCGGA | -2.64 ± 0.17 | -2.37 ± 0.21 |
| AUUUAGCAAUAUUACGCCGA | -1.94 ± 0.28 | -1.09 ± 0.23 |
| CCUCAGCAAUAUUACGUUAA | -2.89 ± 0.17 | -2.96 ± 0.23 |
| CUCCAGCAAUAUUACGCUCU | -3.59 ± 0.31 | -3.04 ± 0.34 |
| GCCGAGCAAUAUUACGGGUG | -0.694 ± 0.067 | -0.014 ± 0.075 |
| GGAUAGCAAUAUUACGGGGC | -3.69 ± 0.23 | -1.95 ± 0.16 |
| GUGUAGCAAUAUUACGUACG | -2.64 ± 0.23 | -1.14 ± 0.16 |
| AAAAAGCAAUAUUACGGUUA | 0.0411 ± 0.067 | -0.012 ± 0.079 |
| GGAGAGCAAUAUUACGCUAG | -1.3 ± 0.36 | -0.901 ± 0.42 |
| ACUAAGCAAUAUUACGCUGA | -2.16 ± 0.17 | -1.31 ± 0.15 |
| GCGGAGCAAUAUUACGUAUU | -3.85 ± 0.25 | -2.48 ± 0.41 |
| UGUAAGCAAUAUUACGGAAA | -1.83 ± 0.17 | -1.67 ± 0.2 |
| CGUCAGCAAUAUUACGAGCG | -3.52 ± 0.15 | -1.04 ± 0.15 |
| CAUGAGCAAUAUUACGUGAC | -3.75 ± 0.25 | – |
| UGAUAGCAAUAUUACGAGAU | -3.87 ± 0.43 | -1.92 ± 0.3 |
| ACCUAGCAAUAUUACGUUCU | -1.08 ± 0.1 | -0.757 ± 0.1 |
| AACCAGCAAUAUUACGGCCA | -0.365 ± 0.067 | -0.114 ± 0.085 |
| AUCGAGCAAUAUUACGUUUC | – | -2.81 ± 0.31 |
| AUCAAGCAAUAUUACGCAAG | -1.99 ± 0.15 | -0.935 ± 0.15 |
| GCCUAGCAAUAUUACGGGAU | -0.903 ± 0.11 | 0.0611 ± 0.13 |
| ACACAGCAAUAUUACGAUGA | -0.664 ± 0.048 | -0.444 ± 0.057 |
| CGUAAGCAAUAUUACGUCCU | -1.88 ± 0.15 | -0.604 ± 0.17 |

| Sequence | self-splicing fitness (ln) (30 °C) | self-splicing fitness (ln) (37 °C) |
| --- | --- | --- |
| CUGUAGCAAUAUUACGGUUA | -2.17 ± 0.24 | -2.58 ± 0.36 |
| GCCUAGCAAUAUUACGAGUC | -0.636 ± 0.14 | -0.0225 ± 0.18 |
| CAAUAGCAAUAUUACGUUCA | -3.43 ± 0.25 | -2.59 ± 0.24 |
| AGAAAGCAAUAUUACGCGGA | -2.26 ± 0.13 | -0.649 ± 0.13 |
| GGUGAGCAAUAUUACGUCAU | -3.97 ± 0.19 | -2.76 ± 0.31 |
| UCAAAGCAAUAUUACGUGAU | -3.95 ± 0.17 | -2.64 ± 0.21 |
| AAGAAGCAAUAUUACGUCGA | -0.754 ± 0.097 | 0.0801 ± 0.14 |
| GAGCAGCAAUAUUACGUUUC | -3.37 ± 0.14 | -2.2 ± 0.22 |
| GCCUAGCAAUAUUACGUUGC | -1.05 ± 0.076 | -0.0792 ± 0.081 |
| GGAGAGCAAUAUUACGGGUA | -3.5 ± 0.28 | -2.62 ± 0.2 |
| GCAUAGCAAUAUUACGAGAA | -2.57 ± 0.46 | -2.67 ± 0.41 |
| CCGUAGCAAUAUUACGGACA | -1.88 ± 0.35 | – |
| AACUAGCAAUAUUACGCUGA | -2.18 ± 0.14 | -1.91 ± 0.13 |
| UCCUAGCAAUAUUACGAGAU | -2.85 ± 0.16 | -1.7 ± 0.19 |
| ACUCAGCAAUAUUACGCCAA | -1.12 ± 0.17 | -2.5 ± 0.21 |
| AAUUAGCAAUAUUACGUGUG | -2.11 ± 0.11 | -0.784 ± 0.096 |
| GGAAAGCAAUAUUACGAAGA | -2.45 ± 0.3 | -1.57 ± 0.21 |
| AAUAAGCAAUAUUACGUCGC | -2.48 ± 0.16 | -1.21 ± 0.14 |
| CUGGAGCAAUAUUACGGAUG | -1.12 ± 0.16 | -0.927 ± 0.14 |
| GUCUAGCAAUAUUACGUGGA | -2.12 ± 0.23 | -2.69 ± 0.24 |
| GAGGAGCAAUAUUACGUUCU | -2.2 ± 0.2 | -2.4 ± 0.33 |
| UAGUAGCAAUAUUACGACGU | -1.23 ± 0.11 | -0.175 ± 0.095 |
| CAAGAGCAAUAUUACGUUAG | -1.97 ± 0.11 | -0.995 ± 0.12 |
| CGAAAGCAAUAUUACGGCAA | -1.82 ± 0.11 | -1.03 ± 0.1 |

| Sequence | self-splicing fitness (ln) (30 °C) | self-splicing fitness (ln) (37 °C) |
| --- | --- | --- |
| CGGUAGCAAUAUUACGGACC | -3.71 ± 0.35 | -1.29 ± 0.21 |
| GUUUAGCAAUAUUACGAAUU | -2.25 ± 0.38 | -0.545 ± 0.31 |
| AAGCAGCAAUAUUACGGCUA | -0.14 ± 0.066 | 0.0975 ± 0.086 |
| ACGUAGCAAUAUUACGCGCG | -1.28 ± 0.15 | -0.103 ± 0.18 |
| ACGUAGCAAUAUUACGGGUU | -3.54 ± 0.2 | -2.07 ± 0.21 |
| UACAAGCAAUAUUACGAAAA | -1.94 ± 0.19 | -1.22 ± 0.15 |
| UGUUAGCAAUAUUACGGAAG | -3.18 ± 0.3 | -1.37 ± 0.17 |
| AUUUAGCAAUAUUACGUCCU | -0.237 ± 0.16 | 0.18 ± 0.23 |
| ACUCAGCAAUAUUACGGGCU | -0.98 ± 0.067 | -0.954 ± 0.095 |
| AUGUAGCAAUAUUACGCCUU | -0.114 ± 0.1 | -0.413 ± 0.13 |
| GGUUAGCAAUAUUACGUGUG | -2.43 ± 0.12 | -1.56 ± 0.11 |
| CCUCAGCAAUAUUACGCGCU | -2 ± 0.13 | -2.79 ± 0.25 |
| CUGAAGCAAUAUUACGAUGC | -3.46 ± 0.21 | -2.86 ± 0.33 |
| CAAGAGCAAUAUUACGAAUA | -2.52 ± 0.34 | -2.28 ± 0.36 |
| GUCGAGCAAUAUUACGGCUA | -1.78 ± 0.21 | -1.47 ± 0.18 |
| CCAGAGCAAUAUUACGGUCG | -1.35 ± 0.1 | -0.448 ± 0.12 |
| CAUGAGCAAUAUUACGCCUG | -2.93 ± 0.21 | -2.02 ± 0.35 |
| GAAAAGCAAUAUUACGUUGA | -2.87 ± 0.15 | -1.24 ± 0.1 |
| AAGCAGCAAUAUUACGAUCU | -0.0506 ± 0.075 | 0.801 ± 0.09 |
| CAUUAGCAAUAUUACGAGAG | -2.5 ± 0.19 | -2.63 ± 0.21 |
| ACUCAGCAAUAUUACGGUGU | -2.56 ± 0.085 | -1.34 ± 0.079 |
| CACUAGCAAUAUUACGAUAU | -4.57 ± 0.34 | -2.17 ± 0.2 |
| GCCGAGCAAUAUUACGGUCA | -1.63 ± 0.098 | -0.977 ± 0.09 |
| CCGCAGCAAUAUUACGACCG | -0.576 ± 0.074 | 0.229 ± 0.11 |
